Laboratory results reported in publication PMC7055370, “Structure of the MICU1–MICU2 heterodimer provides insights into the gatekeeping threshold shift” (IUCrJ, 2020).

Target: the molecule itself
Experiment: crystal structure; apo MICU1 ΔC - MICU2 ΔC (SeMet) mixed at a 1:1 molar ratio; crystals at 20°C in 20%(w/v) PEG 3350, 0.2 M ammonium citrate tribasic pH 7.5; 3.1 Å, SAD

B1: human MICU2 ΔC helix (residues 84–401), selenomethionine derivative (domain or fragment, UniProt Q8IYU8 84-401, looked up)
chain: SLRKQRFMQFSSLEHEGEYYMTPRDFLFSVMFEQMERKTSVKKLTKKDIEDTLSGIQTAGCGSTFFRDLGDKGLISYTEYLFLLTILTKPHSGFHVAFKMLDTDGNEMIEKREFFKLQKIISKQDDLMTVKTNETGYQEAIVKEPEINTTLQMRFFGKRGQRKLHYKEFRRFMENLQTEIQEMEFLQFSKGLSFMRKEDFAEWLLFFTNTENKDIYWKNVREKLSAGESISLDEFKSFCHFTTHLEDFAIAMQMFSLAHRPVRLAEFKRAVKVATGQELSNNILDTVFKIFDLDGDECLSHEEFLGVLKNRMHRGLWV
modifications: selenomethionine (SeMet) derivative
notes: human MICU2 (mitochondrial calcium uptake protein 2), residues 84-401, without the C-terminal helix; pCold II vector with 6x His tag at the N terminus; also called mitochondrial calcium uptake protein 2; source: E. coli B834(DE3), purified (Ni-IDA, SEC); not shown: His6, N-terminal, kept
B1: binds.
